These results are taken from patent publication US20230183353A1.

Assay [1] deals with recombinant human FcγRIIIa (Val) (human) (UniProt P08637). In words: SPR (ProteOn), receptor immobilised on GLC chip by amine coupling, pH 7.4, 25 C.
Assay [2] has as its target recombinant human FcγRIIIa (Phe) (human) (UniProt P08637). The description is as above.

Chain of recombinant human FcγRIIIa (Phe) (human) (P08637 17-208 limits assumed): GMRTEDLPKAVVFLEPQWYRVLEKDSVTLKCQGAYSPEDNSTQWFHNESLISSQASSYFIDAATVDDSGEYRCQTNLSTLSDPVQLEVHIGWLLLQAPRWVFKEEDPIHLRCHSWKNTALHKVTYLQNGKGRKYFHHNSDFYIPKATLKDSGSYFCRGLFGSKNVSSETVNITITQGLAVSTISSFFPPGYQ
Chain of recombinant human FcγRIIIa (Val) (human) (P08637 17-208 F176V limits assumed): as the sequence (P08637 17-208 limits assumed) above, with F160V counted along it

For the substance “Control molecule representing human IgG1 control (lacking substitutions of the present invention)”, the values for the Kd in assay [1] and in assay [2] were 1280 nM and 2200 nM, respectively.
